The results in this text go back to PMC5560549.

A word on the EC50: it is the concentration needed to bring the measured effect to its halfway point. As a reminder, the Kd is the constant that tells how readily two partners part at equilibrium. Lower therefore signals higher affinity. One may read the koff as a measure of how fast the partners let go of each other. High values mean fast dissociation, low ones slow dissociation. In general, kon refers to the second-order rate constant of association. Low readings indicate slower complex formation, high ones faster complex formation.

Test [1] concerns the target human FcRn (Sino Biological), biotinylated (UniProt P55899). Kind of test: ELISA. The settings on record: 37°C (incubations), PBS (concentration not stated), PBST (PBS + 0.05% (v/v) Tween 20) adjusted to pH 6.0 or pH 7.4 for the washes. The pH of the antibody dilution buffer is.
For test [2] the target is unchanged. As to the kind of experiment: SPR (Biacore 3000). The settings on record: pH 6.0, not stated for this buffer (the HBS-EP+ used in the PCSK9 experiments contained 150 mM NaCl), HBS-EP buffer pH 6.0. Its composition is not given. The HBS-EP+ of the PCSK9 SPR section was 10 mM HEPES, 3. In general terms: In SPR one partner is held on a chip, and binding of the other changes the refractive index at the surface.

Test [3] addresses human FcRn (neonatal Fc receptor), biotinylated (human) (UniProt P55899). Kind of test: SPR; Biacore 3000; biotinylated FcRn captured on streptavidin coupled to a CM5 chip; antibody 0-10 nM in HBS-EP pH 6.0 injected at 50 ul/min, 3 min association, 3 min dissociation; regeneration with HBS-EP pH 8.0; 1:1 Langmuir model.

On to “F0016A (alirocumab sequence, wild-type Fc)”, for which the EC50 in test [1] (pH 6.0) stood at 30.4 µg/mL; in test [1] (pH 7.4), 45.1 µg/mL. In test [2], the ka was determined as 1.27e+06 M⁻¹ s⁻¹. The kd in test [2] worked out at 0.00617 s⁻¹.

Take “F0016A, a human IgG1 anti-PCSK9 mAb (alirocumab) (antibody)”: in test [3], the Kd was determined as 4.88 nM, the off-rate constant (koff) was determined as 0.00617 s⁻¹ and the kon came to 1.27e+06 M⁻¹ s⁻¹.

Consider “F0016B (alirocumab Fc T251Q/M429L) T251Q;M429L”, for which, in test [1] (pH 6.0), the EC50 was 3.47 µg/mL. For the same substance, in test [1] (pH 7.4), the EC50 worked out at 12.2 µg/mL. In test [2], this substance came in with a ka of 1.43e+06 M⁻¹ s⁻¹ and a kd of 0.00302 s⁻¹.

In test [3], “F0016B, Fc variant T251Q/M429L of F0016A (antibody)” returned a Kd of 2.11 nM, a koff of 0.00302 s⁻¹ and a kon of 1.43e+06 M⁻¹ s⁻¹.

For “F0016C (alirocumab Fc M429L/N435S) M429L;N435S”, the half-maximal effective concentration (EC50) in test [1] (pH 6.0) turned out to be 1.56 µg/mL; in test [1] (pH 7.4) it was 16.5 µg/mL. Moreover, in test [2], the ka came to 1.36e+06 M⁻¹ s⁻¹. The kd in test [2] stood at 0.0024 s⁻¹.

Regarding “F0016C, Fc variant M429L/N435S of F0016A (antibody)”, in test [3], the Kd was found to be 1.76 nM, the off-rate (koff) was 0.0024 s⁻¹ and the kon was determined as 1.36e+06 M⁻¹ s⁻¹.

With “F0016D (alirocumab Fc M253Y/S255T/T257E) M253Y;S255T;T257E”, the EC50 in test [1] (pH 6.0) was determined as 1.75 µg/mL. The EC50 in test [1] (pH 7.4) was 8.87 µg/mL. In test [2], this substance returned a ka of 1.05e+06 M⁻¹ s⁻¹ and a kd of 0.00201 s⁻¹.

In test [3], “F0016D, Fc variant M253Y/S255T/T257E of F0016A (antibody)” showed a Kd of 1.91 nM, a koff of 0.00201 s⁻¹ and a kon of 1.05e+06 M⁻¹ s⁻¹.
